Biological target: T1, 人EGFR (human epidermal growth factor receptor) (human, UniProt P00533 25-1210)
T1 construct: whole, on cells; The target is on tumour cell lines that naturally express EGFR; No recombinant EGFR was used; also called 表皮生长因子受体; EGFR分子
Assay: flow cytometry on MAD-MB-231 cells highly expressing EGFR; 293F supernatant (~20ug antibody), FITC donkey anti-human IgG

binding result: binds
B1: CET06 (antibody, V domains shown)
VH: QVQLTQSGPGLVKPSETLSQTCTVSGFSLTNYGVHWVRQSPGKGLEWLGVIWSGGNTDYNTPFTSRLTISVDTSKNQVSLKLSSVTSNDTAVYYCARALTYYDYEFAYWGQGTLVTVSA
VL: DISLTQSPVFLSVTPGEKVESECRASQSIGTNIHWYQQKPDQSPKLLIKYASESISGVPSRFSGSGSGTDFTLTINSVESEDIADYYCQQNNNWPTTFGAGTKLELKR
notes: the summary and claim 2 give the reverse; also called 抗人EGFR嵌合抗体CET06
